Assay results: patent US20240392002A1 (EXELIXIS, published 2024)

Tests used:
ROR1 Frizzled domain = biological target: T1, ROR1 Frizzled domain (human, UniProt Q01973 165-299); test: BLI, IgG1 on biosensor, soluble ROR1 domain
T1 construct: also called FZ domain; Acro Cat. No. RO1-H5222

[1] = biological target: T2, extracellular domain of human ROR1 (human, UniProt Q01973 30-406); test: BLI, IgG1 on biosensor, soluble ROR ectodomain
T2 construct: bought protein; biotinylated in the bivalent assay format; also called Acro Cat. No. RO1-H522y

[2] = biological target: T3, extracellular domain of human ROR2 (human, UniProt Q01974 34-403); test: BLI, IgG1 on biosensor, soluble ROR ectodomain
T3 construct: bought protein; biotinylated in the bivalent assay format; also called Acro Cat. No. RO2-H52E5

[3] = biological target: T2, extracellular domain of human ROR1; test: BLI (Octet), IgG1, two-fold serial dilution 200-12.5 nM
Text: To measure binding affinity in ROR binder discovery campaigns, the VL and VH domains identified in the phage screen described above were formatted into a bivalent monospecific native human full-length IgG1 architecture and immobilized to a biosensor on an Octet (Pall ForteBio) biolayer interferometer. Soluble ROR antigens, including the extracellular domains of ROR1 (Acro Cat. No. RO1-H522γ) and ROR2 (Acro Cat. No. R02-H52E5), as well as the individual ROR1 Frizzled (Acro Cat. No. RO1-H5222), Ig-like (Acro Cat. No. RO1-H5221), and Kringle (Acro Cat. No. RO1-H5223) domains, were then added to the system and binding measured.
The VH and VL sequences above were formatted into a bivalent monospecific native human full-length IgG1 architecture.

[4] = biological target: T2, extracellular domain of human ROR1; test: BLI, monovalent format
Experimental: (§1) More specifically, monovalent binding affinity analysis was performed using the Octet^QK 384 (ForteBio) using Fc biosensors. Unlabeled B-body™ is first bound to the Fc biosensor at a concentration to yield approximately 1 nm response (typically 10 to 50 nM protein). The biosensors are then equilibrated in 10× Kinetic Buffer (ForteBio) to establish a baseline. The untagged monomer of each antigen is contacted with the antibody-coated sensors at concentrations ranging from 50 nm to 0.75 nM. The association response and dissociation were monitored and recorded. The resulting Kₒₙ and Koff was fit using the Octet analysis software.
(§2) Next, the binding of the antibody to ROR1 and ROR2 was assessed using the monovalent and bivalent BLI binding assessments as described in Example 24.

[5] = biological target: T3, extracellular domain of human ROR2; test: BLI, monovalent format
Experimental: as §1, §2

[6] = biological target: T2, extracellular domain of human ROR1; test: BLI (Octet QK384), monovalent format: antibody captured on Fc biosensor, untagged antigen as analyte
Experimental: as §1, §2

[7] = biological target: T3, extracellular domain of human ROR2; test: as above
Experimental: as §1, §2

CTLA4 = biological target: T4, CTLA4 (UniProt P16410 36-161, limits assumed); test: Octet; antigen immobilized, B-Body as analyte
T4 sequence (looked up): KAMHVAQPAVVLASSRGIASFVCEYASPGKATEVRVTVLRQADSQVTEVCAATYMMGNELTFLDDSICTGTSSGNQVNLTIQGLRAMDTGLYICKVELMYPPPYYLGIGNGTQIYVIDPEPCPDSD
Text: In each instance, the antigen is immobilized and the B-Body is the analyte.

ROR1 on tumor cell lines = ROR1 on tumor cell lines (human, UniProt Q01973 30-937); test: cell-based or functional assay
CD3 on Jurkat T cells = biological target: T5, CD3 on Jurkat T cells (human, UniProt P07766 23-207; P04234 22-171); test: flow cytometry on Jurkat T cells, fluorescently labeled secondary antibody, MFI against antibody concentration
T5 construct: also called human CD3; copies: 1 + 1
Text: (§3) In this Example, the binding to human and cynomolgus CD3 was further characterized by assessing cell binding to Jurkat T cells, a Jurkat CD3 knock-out cell line, or a cynomolgus T cell line.

[8] = biological target: T6, CD3 on a cynomolgus T cell line (cynomolgus); test: flow cytometry on a cynomolgus T cell line, fluorescently labeled secondary antibody, MFI against antibody concentration
T6 construct: whole, on cells; also called cynomolgus CD3
Text: as §3

[9] = biological target: human CD3 delta and epsilon heterodimer (human, UniProt P07766 23-126; P04234 22-105); test: BLI (Octet), two-fold serial dilution 200-12.5 nM of the construct
Sequence of human CD3 delta and epsilon heterodimer (P07766 23-126, stated change not applied, chain 1 of 2): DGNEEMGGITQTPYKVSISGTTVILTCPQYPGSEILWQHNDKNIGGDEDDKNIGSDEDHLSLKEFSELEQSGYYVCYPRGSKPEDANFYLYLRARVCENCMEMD
Sequence of human CD3 delta and epsilon heterodimer (P04234 22-105, stated change not applied, chain 2 of 2): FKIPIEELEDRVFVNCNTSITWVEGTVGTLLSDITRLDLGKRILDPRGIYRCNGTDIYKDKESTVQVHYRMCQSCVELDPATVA

T3 sequence (Q01974 34-403 limits assumed): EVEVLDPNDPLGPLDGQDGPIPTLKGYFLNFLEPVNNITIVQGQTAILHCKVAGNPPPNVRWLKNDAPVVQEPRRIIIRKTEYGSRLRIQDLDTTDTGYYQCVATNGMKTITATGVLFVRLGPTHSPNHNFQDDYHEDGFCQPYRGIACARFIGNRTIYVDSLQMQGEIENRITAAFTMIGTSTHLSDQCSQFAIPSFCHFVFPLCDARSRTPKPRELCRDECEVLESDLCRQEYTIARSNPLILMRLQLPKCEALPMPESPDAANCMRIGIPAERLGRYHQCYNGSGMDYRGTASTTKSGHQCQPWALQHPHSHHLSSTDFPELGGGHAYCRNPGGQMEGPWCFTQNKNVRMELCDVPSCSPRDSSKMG
T2 sequence (Q01973 30-406 limits assumed): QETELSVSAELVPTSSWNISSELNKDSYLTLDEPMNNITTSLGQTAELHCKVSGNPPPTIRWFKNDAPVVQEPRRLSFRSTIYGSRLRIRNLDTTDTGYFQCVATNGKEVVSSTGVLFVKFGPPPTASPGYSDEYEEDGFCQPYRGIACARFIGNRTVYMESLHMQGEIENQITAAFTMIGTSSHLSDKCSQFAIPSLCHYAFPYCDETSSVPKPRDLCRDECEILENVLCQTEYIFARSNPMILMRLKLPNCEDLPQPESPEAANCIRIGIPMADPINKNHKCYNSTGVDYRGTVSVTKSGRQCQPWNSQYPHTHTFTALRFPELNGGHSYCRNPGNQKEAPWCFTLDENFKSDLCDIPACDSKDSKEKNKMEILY
Sequence of ROR1 on tumor cell lines (Q01973 30-937 limits assumed): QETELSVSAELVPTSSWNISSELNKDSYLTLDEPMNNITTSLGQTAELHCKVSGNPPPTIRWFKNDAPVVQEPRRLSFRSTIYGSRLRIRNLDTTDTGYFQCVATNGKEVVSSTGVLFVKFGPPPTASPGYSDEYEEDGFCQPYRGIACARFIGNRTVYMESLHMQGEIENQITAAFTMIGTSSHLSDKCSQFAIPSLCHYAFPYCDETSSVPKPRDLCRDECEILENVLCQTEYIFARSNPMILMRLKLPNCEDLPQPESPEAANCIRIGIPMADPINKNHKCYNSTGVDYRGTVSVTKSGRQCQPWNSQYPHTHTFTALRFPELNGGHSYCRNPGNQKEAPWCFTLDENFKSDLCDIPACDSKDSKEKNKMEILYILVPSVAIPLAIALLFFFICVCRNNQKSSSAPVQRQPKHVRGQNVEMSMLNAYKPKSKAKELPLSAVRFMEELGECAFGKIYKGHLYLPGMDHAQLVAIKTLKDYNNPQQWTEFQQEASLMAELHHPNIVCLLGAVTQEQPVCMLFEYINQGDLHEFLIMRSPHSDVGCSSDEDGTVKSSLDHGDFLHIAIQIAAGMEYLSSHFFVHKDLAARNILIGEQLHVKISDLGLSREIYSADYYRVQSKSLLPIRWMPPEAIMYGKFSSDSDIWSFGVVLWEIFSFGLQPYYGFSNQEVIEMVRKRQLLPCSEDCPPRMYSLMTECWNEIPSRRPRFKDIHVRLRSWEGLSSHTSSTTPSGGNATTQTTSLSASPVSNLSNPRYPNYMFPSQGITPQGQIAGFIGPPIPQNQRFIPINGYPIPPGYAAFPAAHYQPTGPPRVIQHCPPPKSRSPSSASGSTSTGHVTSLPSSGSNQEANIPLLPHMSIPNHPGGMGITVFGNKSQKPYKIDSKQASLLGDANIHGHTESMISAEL
T1 sequence (Q01973 165-299): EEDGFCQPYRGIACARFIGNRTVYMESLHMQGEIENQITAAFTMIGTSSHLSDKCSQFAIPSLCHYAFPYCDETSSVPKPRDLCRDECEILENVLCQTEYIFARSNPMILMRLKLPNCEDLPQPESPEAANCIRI
T6 sequence (Q95LI5 22-198, chain 1 of 3): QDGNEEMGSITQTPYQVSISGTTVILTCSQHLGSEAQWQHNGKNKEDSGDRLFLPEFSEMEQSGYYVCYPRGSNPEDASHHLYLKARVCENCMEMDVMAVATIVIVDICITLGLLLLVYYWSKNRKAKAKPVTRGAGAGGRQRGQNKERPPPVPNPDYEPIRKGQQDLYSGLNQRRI
T6 sequence (Q95LI8 22-171, chain 2 of 3, further chain): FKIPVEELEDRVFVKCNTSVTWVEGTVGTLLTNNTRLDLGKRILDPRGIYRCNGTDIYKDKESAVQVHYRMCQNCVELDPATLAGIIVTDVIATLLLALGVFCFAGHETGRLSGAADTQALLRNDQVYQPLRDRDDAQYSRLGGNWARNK
T6 sequence (Q95LI7 23-181, chain 3 of 3, further chain): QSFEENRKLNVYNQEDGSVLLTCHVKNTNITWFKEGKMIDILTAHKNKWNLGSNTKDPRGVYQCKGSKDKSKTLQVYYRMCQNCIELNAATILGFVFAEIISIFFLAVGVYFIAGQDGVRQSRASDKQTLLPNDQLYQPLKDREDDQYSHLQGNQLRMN
T5 sequence (P07766 23-207 limits assumed, chain 1 of 2): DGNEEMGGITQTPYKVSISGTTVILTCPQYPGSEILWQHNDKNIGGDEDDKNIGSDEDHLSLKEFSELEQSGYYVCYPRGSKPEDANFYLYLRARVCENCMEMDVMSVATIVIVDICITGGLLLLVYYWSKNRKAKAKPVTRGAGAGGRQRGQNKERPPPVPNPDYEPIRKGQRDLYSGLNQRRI
T5 sequence (P04234 22-171 limits assumed, chain 2 of 2): as the sequence (Q95LI8 22-171, chain 2 of 3, further chain) above, with V5I, K15N, V20I, T32S, N33D, N34I, A64T, N74S, L83V, R141H counted along it

B1: I2A-25 IgG1 (antibody, V domains shown)
VH: EVQLVESGGGLVQPGGSLRLSCAASGFTFYGYTIHWVRQAPGKGLEWVAAIYPYTDSTRYADSVKGRFTISADTSKNTAYLQMNSLRAEDTAVYYCARDYRRALDYWGQGTLVTVSS
VL: DIQMTQSPSSLSASVGDRVTITCRASQSVSSAVAWYQQKPGKAPKLLIYSASSLYSGVPSRFSGSRSGTDFTLTISSLQPEDFATYYCQQYTDFPWTFGQGTKVEIK
notes: human IgG1
binding result (ROR1 Frizzled domain): binds
binding result [1]: binds
binding result [2]: no binding

B2: I2A-10 IgG1 (antibody, V domains shown)
VH: EVQLVESGGGLVQPGGSLRLSCAASGFTFSSYFIHWVRQAPGKGLEWVAGIYPSDGYTSYADSVKGRFTISADTSKNTAYLQMNSLRAEDTAVYYCARYYVSGMDYWGQGTLVTVSS
VL: DIQMTQSPSSLSASVGDRVTITCRASQSVSSAVAWYQQKPGKAPKLLIYSASSLYSGVPSRFSGSRSGTDFTLTISSLQPEDFATYYCQQYYYYPGTFGQGTKVEIKR
notes: bivalent monospecific native human full-length IgG1; the Domain F / Domain A entries end with AS / RT of the junction to the constant domain; also called clone I2-A10
binding result [2]: binds
Kd [3]: 0.82 nM
koff [3]: 0.00038 s⁻¹
kon [3]: 538000 M⁻¹ s⁻¹

B3: I2A-10 D54E Y55Q IgG (antibody, V domains shown)
VH: EVQLVESGGGLVQPGGSLRLSCAASGFTFSSYFIHWVRQAPGKGLEWVAGIYPSEGYTSYADSVKGRFTISADTSKNTAYLQMNSLRAEDTAVYYCARYYVSGMDYWGQGTLVTVSS
VL: DIQMTQSPSSLSASVGDRVTITCRASQSVSSAVAWYQQKPGKAPKLLIYSASSLQSGVPSRFSGSRSGTDFTLTISSLQPEDFATYYCQQYYYYPGTFGQGTKVEIKR
notes: bivalent monospecific IgG; the Domain F / Domain A entries end with AS / RT of the junction to the constant domain; also called I2-A10 D54E Y55Q IgG antibody
Kd [4]: 0.7 nM
Kd [5]: < 0.001 nM
koff [6]: 0.00039 s⁻¹
kon [6]: 550000 M⁻¹ s⁻¹
koff [7]: < 1e-07 s⁻¹
kon [7]: 140000 M⁻¹ s⁻¹

B4: bivalent bispecific B-Body “BC1” (bispecific antibody)
chain 1: not shown
chain 2: EVQLVESGGGLVQPGGSLRLSCAASGFTFSDYDIHWVRQAPGKGLEWVGDITPYDGTTNYADSVKGRFTISADTSKNTAYLQMNSLRAEDTAVYYCARLVGEIATGFDYWGQGTLVTVSSASPREPQVYTDPPSRDELTKNQVSLTCLVKGFYPSDIAVEWESNGQPENNYKTTPPVLDSDGSFFLYSKLTVDKSRWQQGNVFSCSVMHEALHNHYTQKSLSLSGEC
chain 3: not shown
chain 4: QVQLVESGGGVVQPGRSLRLDCKASGITFSNSGMHWVRQAPGKGLEWVAVIWYDGSKRYYADSVKGRFTISRDNSKNTLFLQMNSLRAEDTAVYYCATNDDYWGQGTLVTVSSASTKGPSVFPLAPSSKSTSGGTAALGCLVKDYFPEPVTVSWNSGALTSGVHTFPAVLQSSGLYSLSSVVTVPSSSLGTQTYICNVNHKPSNTKVDKKVEPPKSC
notes: A:F site for Antigen A, H:L site nivolumab variable domains (PD1)
binding result (CTLA4): no binding

B5: I2A-10 BC1 1×2 B-body (I2A-10 x SP34-89) (bispecific antibody)
chain 1: not shown
chain 2: EVQLVESGGGLVQPGGSLRLSCAASGFTFSSYFIHWVRQAPGKGLEWVAGIYPSDGYTSYADSVKGRFTISADTSKNTAYLQMNSLRAEDTAVYYCARYYSGMDYWGQGTLVTVSSASPREPQVYTDPPSRDELTKNQVSLTCLVKGFYPSDIAVEWESNGQPENNYKTTPPVLDSDGSFFLYSKLTVDKSRWQQGNVFSCSVMHEALHNHYTQKSLSLSGEC
chain 3: DIQMTQSPSSLSASVGDRVTITCRASQSVSSAVAWYQQKPGKAPKLLIYSASSLYSGVPSRFSGSRSGTDFTLTISSLQPEDFATYYCQQYYYYPGTFGQGTKVEIKRTPREPQVYTLPPSRDELTKNQVSLKCLVKGFYPSDIAVEWESNGQPENNYKTTPPVLDSDGSFFLYSKLTVDKSRWQQGNVFSCSVMHEALHNHYTQKSLSLSKSCTASSGGSSSGQAVVTQEPSLTVSPGGTVTLTCRSSTGAVTTSNYANWVQQKPGQAPRGLIGGTNKRAPWTPARFSGSLLGGKAALTITGAQAEDEADYYCALWYSNLWVFGGGTKLTVLGRTVAAPSVFIFPPSDEQLKSGTASVVCLLNNFYPREAKVQWKVDNALQSGNSQESVTEQDSKDSTYSLSSTLTLSKADYEKHKVYACEVTHQGLSSPVTKSFNRGECDKTHTCPPCPAPEAAGGPSVFLFPPKPKDTLMISRTPEVTCVVVDVSHEDPEVKFNWYVDGVEVHNAKTKPREEQYNSTYRVVSVLTVLHQDWLNGKEYKCKVSNKALKAPIEKTISKAKGQPREPQVCTLPPSREEMTKNQVSLSCAVKGFYPSDIAVEWESNGQPENNYKTTPPVLDSDGSFFLVSKLTVDKSRWQQGNVFSCSVMHEALHNHYTQKSLSLSPGK
chain 4: EVQLVESGGGLVQPGGSLRLSCAASGFTFNTYAMNWVRQAPGKGLEWVARIRSKYNNYATYYADSVKGRFSISRDDSKNTAYLQMNSLRAEDTAVYYCVRHGNFGNSYVSWFAYWGQGTLVTVSSASTKGPSVFPLAPSSKSTSGGTAALGCLVKDYFPEPVTVSWNSGALTSGVHTFPAVLQSSGLYSLSSVVTVPSSSLGTQTYICNVNHKPSNTKVDKKVEPPKSC
EC50, CD8+ T cell mediated killing of MDA-MB-231 (LDH) (ROR1 on tumor cell lines): 0.013 nM

B6: I2A-27 BC1 1×2 B-body (I2A-27 x SP34-89), Example 20 (bispecific antibody)
chain 1: not shown
chain 2: EVQLVESGGGLVQPGGSLRLSCAASGFTFKGYYIHWVRQAPGKGLEWVAAIYPYGGSTDYADSVKGRFTISADTSKNTAYLQMNSLRAEDTAVYYCARVYIYGVFDYWGQGTLVTVSSASPREPQVYTDPPSRDELTKNQVSLTCLVKGFYPSDIAVEWESNGQPENNYKTTPPVLDSDGSFFLYSKLTVDKSRWQQGNVFSCSVMHEALHNHYTQKSLSLSGEC
chain 3: DIQMTQSPSSLSASVGDRVTITCRASQSVSSAVAWYQQKPGKAPKLLIYSASSLYSGVPSRFSGSRSGTDFTLTISSLQPEDFATYYCQQYYSSPRTFGQGTKVEIKRTPREPQVYTLPPSRDELTKNQVSLKCLVKGFYPSDIAVEWESNGQPENNYKTTPPVLDSDGSFFLYSKLTVDKSRWQQGNVFSCSVMHEALHNHYTQKSLSLSKSCTASSGGSSSGQAVVTQEPSLTVSPGGTVTLTCRSSTGAVTTSNYANWVQQKPGQAPRGLIGGTNKRAPWTPARFSGSLLGGKAALTITGAQAEDEADYYCALWYSNLWVFGGGTKLTVLGRTVAAPSVFIFPPSDEQLKSGTASVVCLLNNFYPREAKVQWKVDNALQSGNSQESVTEQDSKDSTYSLSSTLTLSKADYEKHKVYACEVTHQGLSSPVTKSFNRGECDKTHTCPPCPAPEAAGGPSVFLFPPKPKDTLMISRTPEVTCVVVDVSHEDPEVKFNWYVDGVEVHNAKTKPREEQYNSTYRVVSVLTVLHQDWLNGKEYKCKVSNKALKAPIEKTISKAKGQPREPQVCTLPPSREEMTKNQVSLSCAVKGFYPSDIAVEWESNGQPENNYKTTPPVLDSDGSFFLVSKLTVDKSRWQQGNVFSCSVMHEALHNHYTQKSLSLSPGK
chain 4: EVQLVESGGGLVQPGGSLRLSCAASGFTFNTYAMNWVRQAPGKGLEWVARIRSKYNNYATYYADSVKGRFSISRDDSKNTAYLQMNSLRAEDTAVYYCVRHGNFGNSYVSWFAYWGQGTLVTVSSASTKGPSVFPLAPSSKSTSGGTAALGCLVKDYFPEPVTVSWNSGALTSGVHTFPAVLQSSGLYSLSSVVTVPSSSLGTQTYICNVNHKPSNTKVDKKVEPPKSC
EC50, CD8+ T cell mediated killing of MDA-MB-231 (LDH) (ROR1 on tumor cell lines): 0.0082 nM

B7: SP34-89 humanized antibody (antibody, V domains shown)
VH: EVQLVESGGGLVQPGGSLRLSCAASGFTFNTYAMNWVRQAPGKGLEWVARIRSKYNNYATYYADSVKGRFSISRDDSKNTAYLQMNSLRAEDTAVYYCVRHGNFGNSYVSWFAYWGQGTLVTV
VL: QAVVTQEPSLTVSPGGTVTLTCRSSTGAVTTSNYANWVQQKPGQAPRGLIGGTNKRAPWTPARFSGSLLGGKAALTITGAQAEDEADYYCALWYSNLWVFGGGTKLTVL
EC50 (read off the curve) (CD3 on Jurkat T cells): ~0.6 nM
EC50 (read off the curve) [8]: ~0.7 nM

B8: non-mutagenized SP34-89 monovalent B-Body (bispecific antibody, V domains shown)
VH: EVQLVESGGGLVQPGGSLRLSCAASGFTFNTYAMNWVRQAPGKGLEWVARIRSKYNNYATYYADSVKGRFSISRDDSKNTAYLQMNSLRAEDTAVYYCVRHGNFGNSYVSWFAYWGQGTLVTV
VL: QAVVTQEPSLTVSPGGTVTLTCRSSTGAVTTSNYANWVQQKPGQAPRGLIGGTNKRAPWTPARFSGSLLGGKAALTITGAQAEDEADYYCALWYSNLWVFGGGTKLTVL
notes: cloned into one arm of a 1×1 BC1 B-Body
Kd [9]: 23 nM
koff [9]: 0.0071 s⁻¹
kon [9]: 300000 M⁻¹ s⁻¹
